This is an account of results in publication PMC2120792.

For assay [1], the target named is recombinant human plakoglobin, complete (pQPg) (human) (UniProt P14923). Briefly: ELISA.
Assay [2] deals with SyPg(234), synaptophysin-plakoglobin chimera truncated after plakoglobin residue 234 (rat | human) (UniProt P07825). Briefly: co-IP.
Assay [3] has as its target SyPg(580), synaptophysin-plakoglobin chimera truncated after plakoglobin residue 580 (rat | human) (UniProt P07825). The assay is described as follows: co-IP.

Chain of UniProt P14923 (P14923 whole entry, the tested form may be a part): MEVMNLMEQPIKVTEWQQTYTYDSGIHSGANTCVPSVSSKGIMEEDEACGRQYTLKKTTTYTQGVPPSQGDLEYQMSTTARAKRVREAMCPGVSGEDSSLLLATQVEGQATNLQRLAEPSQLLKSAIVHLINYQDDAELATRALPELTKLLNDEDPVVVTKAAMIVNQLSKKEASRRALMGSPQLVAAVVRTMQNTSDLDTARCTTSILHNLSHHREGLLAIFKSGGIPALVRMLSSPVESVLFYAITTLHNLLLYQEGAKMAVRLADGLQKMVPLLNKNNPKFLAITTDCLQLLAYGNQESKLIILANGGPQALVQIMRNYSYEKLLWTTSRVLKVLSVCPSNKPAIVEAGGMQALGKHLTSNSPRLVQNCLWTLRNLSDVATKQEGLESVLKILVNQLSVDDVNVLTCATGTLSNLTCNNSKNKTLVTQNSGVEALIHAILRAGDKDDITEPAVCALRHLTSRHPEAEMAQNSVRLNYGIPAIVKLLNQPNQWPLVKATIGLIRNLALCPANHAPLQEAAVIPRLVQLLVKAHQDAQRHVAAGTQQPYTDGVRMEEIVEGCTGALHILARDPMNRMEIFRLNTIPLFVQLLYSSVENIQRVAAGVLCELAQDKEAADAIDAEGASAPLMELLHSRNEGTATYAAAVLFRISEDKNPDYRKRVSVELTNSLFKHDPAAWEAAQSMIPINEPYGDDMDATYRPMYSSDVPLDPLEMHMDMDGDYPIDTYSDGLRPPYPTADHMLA

“HCUv, his-tagged cadherin tail with the IA subdomain of bovine Dsc1 and the C-subdomain of murine E-cadherin”: the fold weaker binding than HCDg in assay [1] was determined as 5 fold. With “endogenous desmoglein (Dsg) (from UniProt Q14126 50-1118) (natural protein)”, the Dsg coprecipitated relative to SyPg (fraction of that with SyPg) in assay [2] and in assay [3] was < 0.33 each time. Take “HCDc, his-tagged cadherin tail with the IA subdomain and C-domain of bovine Dsc1 (domain or fragment)”: the fold weaker binding than HCDg in assay [1] came out at 2 fold.
